Legend:
[1] = molecular target: HLA-A*3303 (A33) single antigen on beads (human); assay: Luminex iBeads (#6), IVIg 1:8
[2] = molecular target: HLA-A*3002 (A30) single antigen on beads (human); assay: Luminex iBeads (#6), IVIg 1:8
[3] = molecular target: HLA-A*3601 (A36) single antigen on beads (human); assay: Luminex iBeads (#6), IVIg 1:8
[4] = molecular target: HLA-A*3301 (A33) single antigen on beads (human); assay: Luminex iBeads (#6), IVIg 1:8
[5] = molecular target: HLA-A*4301 (A43) single antigen on beads (human); assay: Luminex iBeads (#6), IVIg 1:8
[6] = molecular target: HLA-A*2902 (A29) single antigen on beads (human); assay: Luminex iBeads (#6), IVIg 1:8
[7] = molecular target: HLA-A*6602 (A66) single antigen on beads (human); assay: Luminex iBeads (#6), IVIg 1:8
[8] = molecular target: HLA-A*3401 (A34) single antigen on beads (human); assay: Luminex iBeads (#6), IVIg 1:8
[9] = molecular target: HLA-A*6601 (A66) single antigen on beads (human); assay: Luminex iBeads (#6), IVIg 1:8
[10] = molecular target: HLA-A*3001 (A30) single antigen on beads (human); assay: Luminex iBeads (#6), IVIg 1:8
[11] = molecular target: HLA-A*6801 (A68) single antigen on beads (human); assay: Luminex iBeads (#6), IVIg 1:8
[12] = molecular target: HLA-A*3402 (A34) single antigen on beads (human); assay: Luminex iBeads (#6), IVIg 1:8
[13] = molecular target: HLA-A*3101 (A31) single antigen on beads (human); assay: Luminex iBeads (#6), IVIg 1:8
[14] = molecular target: HLA-A*3201 (A32) single antigen on beads (human); assay: Luminex iBeads (#6), IVIg 1:8
HLA-B*1516 (B63) (human) [15] = assay: Luminex iBeads (#6), IVIg diluted 1:8
[16] = molecular target: HLA-A*3303 (A33) single antigen on beads (human); assay: Luminex, iBead vs regular bead, IVIg 1:8
[17] = molecular target: HLA-A*3601 (A36) single antigen on beads (human); assay: Luminex, iBead vs regular bead, IVIg 1:8
[18] = molecular target: HLA-A*3301 (A33) single antigen on beads (human); assay: Luminex, iBead vs regular bead, IVIg 1:8
[19] = molecular target: HLA-A*2902 (A29) single antigen on beads (human); assay: Luminex, iBead vs regular bead, IVIg 1:8
[20] = molecular target: HLA-A*3401 (A34) single antigen on beads (human); assay: Luminex, iBead vs regular bead, IVIg 1:8
[21] = molecular target: HLA-A*6601 (A66) single antigen on beads (human); assay: Luminex, iBead vs regular bead, IVIg 1:8
[22] = molecular target: HLA-A*3001 (A30) single antigen on beads (human); assay: Luminex, iBead vs regular bead, IVIg 1:8
[23] = molecular target: HLA-A*6801 (A68) single antigen on beads (human); assay: Luminex, iBead vs regular bead, IVIg 1:8
[24] = molecular target: HLA-A*3402 (A34) single antigen on beads (human); assay: Luminex, iBead vs regular bead, IVIg 1:8
[25] = molecular target: HLA-A*3101 (A31) single antigen on beads (human); assay: Luminex, iBead vs regular bead, IVIg 1:8
HLA-B*0702 (B7) (human) = assay: Luminex regular beads (#7), IVIg diluted 1:8
HLA-B*1401 (B64) (human) = assay: Luminex regular beads (#7), IVIg diluted 1:8
HLA-B*1510 (B71) (human) = assay: Luminex regular beads (#7), IVIg diluted 1:8
HLA-B*1513 (B77) (human) = assay: Luminex regular beads (#7), IVIg diluted 1:8
HLA-B*1511 (B75) (human) = assay: Luminex regular beads (#7), IVIg diluted 1:8
HLA-B*1502 (B75) (human) = assay: Luminex regular beads (#7), IVIg diluted 1:8
HLA-B*1801 (B18) (human) = assay: Luminex regular beads (#7), IVIg diluted 1:8
[26] = molecular target: Serum albumin on negative control beads (HSA/BSA) (human or bovine); assay: Luminex regular beads (#7), IVIg diluted 1:8
HLA-B*1402 (B65) (human) = assay: Luminex regular beads (#7), IVIg diluted 1:8
HLA-B*1516 (B63) (human) [27] = assay: Luminex regular beads (#7), IVIg diluted 1:8
HLA-B*0801 (B8) (human) = assay: Luminex regular beads (#7), IVIg diluted 1:8
HLA-B*1512 (B76) (human) = assay: Luminex regular beads (#7), IVIg diluted 1:8
HLA-B*1503 (B72) (human) = assay: Luminex regular beads (#7), IVIg diluted 1:8
HLA-B*1302 (B13) (human) = assay: Luminex regular beads (#7), IVIg diluted 1:8
HLA-B*1301 (B13) (human) = assay: Luminex regular beads (#7), IVIg diluted 1:8
[28] = molecular target: HLA-A*8001 (A80) single antigen on Luminex beads (human); assay: Luminex single antigen bead assay, iBeads vs regular beads, IVIg 1:8
[29] = molecular target: HLA-A*6901 (A69) single antigen on Luminex beads (human); assay: as above
[30] = molecular target: HLA-A*6802 (A68) single antigen on Luminex beads (human); assay: Luminex single antigen bead assay, iBeads (#6), IVIg 1:8
[31] = molecular target: HLA-A*8001 (A80) single antigen on Luminex beads (human); assay: as above
[32] = molecular target: HLA-A*6901 (A69) single antigen on Luminex beads (human); assay: as above

MFI [1]	MFI [3]	MFI [4]	MFI [6]	MFI [10]	MFI [11]	MFI [13]	MFI [14]	MFI (HLA-B*1516 (B63) (human) [15])	Difference % (iBead MFI vs regular bead MFI) [16]	Difference % (iBead MFI vs regular bead MFI) [18]	Difference % (iBead MFI vs regular bead MFI) [19]	Difference % (iBead MFI vs regular bead MFI) [20]	Difference % (iBead MFI vs regular bead MFI) [21]	Difference % (iBead MFI vs regular bead MFI) [22]	Difference % (iBead MFI vs regular bead MFI) [25]	MFI (HLA-B*0702 (B7) (human))	MFI (HLA-B*1510 (B71) (human))	MFI (HLA-B*1513 (B77) (human))	MFI (HLA-B*1511 (B75) (human))	Substance	also measured
725 MFI	1380 MFI	1880 MFI	4430 MFI	624 MFI	634 MFI	351 MFI	1820 MFI	3280 MFI	125%	68%	348%	42%	86%	-32%	189%	2220 MFI	857 MFI	1240 MFI	2820 MFI	IVIg GamaSTAN S/D (Talecris Biotherapeutics, USA) (antibody)	MFI [2]: 929 MFI; MFI [5]: 4180 MFI; MFI [7]: 4320 MFI; MFI [8]: 4320 MFI; MFI [9]: 2610 MFI; MFI [12]: 1210 MFI; Difference % (iBead MFI vs regular bead MFI) [17]: 145%; Difference % (iBead MFI vs regular bead MFI) [23]: 230%; Difference % (iBead MFI vs regular bead MFI) [24]: 76%; MFI (HLA-B*1401 (B64) (human)): 1750 MFI; MFI (HLA-B*1502 (B75) (human)): 526 MFI; MFI (HLA-B*1801 (B18) (human)): 0 MFI; MFI [26]: 3790 MFI; MFI (HLA-B*1402 (B65) (human)): 670 MFI; MFI (HLA-B*1516 (B63) (human) [27]): 3540 MFI; MFI (HLA-B*0801 (B8) (human)): 884 MFI; MFI (HLA-B*1512 (B76) (human)): 2660 MFI; MFI (HLA-B*1503 (B72) (human)): 689 MFI; MFI (HLA-B*1302 (B13) (human)): 2220 MFI; MFI (HLA-B*1301 (B13) (human)): 2240 MFI
3330 MFI	3950 MFI	4460 MFI	6010 MFI	4470 MFI	3150 MFI	3410 MFI	3760 MFI	2400 MFI	599%	163%	243%	47%	722%	112%	1960%	1540 MFI	1430 MFI	4270 MFI	4060 MFI	IVIg Gamunex-C Lot NKLG1 (antibody)	Difference % (iBead MFI against regular bead MFI) [28]: 24%; Difference % (iBead MFI against regular bead MFI) [29]: 122%; MFI [30]: 4660 MFI; MFI [31]: 3970 MFI; MFI [32]: 6240 MFI; MFI (HLA-B*1502 (B75) (human)): 1520 MFI; MFI [26]: 10800 MFI; MFI (HLA-B*1402 (B65) (human)): 2250 MFI; MFI (HLA-B*1516 (B63) (human) [27]): 3760 MFI; MFI (HLA-B*1512 (B76) (human)): 816 MFI; MFI (HLA-B*1503 (B72) (human)): 2380 MFI; MFI (HLA-B*1302 (B13) (human)): 3100 MFI
